From US20260098088A1 (DISC MEDICINE, published 2026)

T1: membrane-bound human RGMc (human, UniProt Q6ZVN8 36-400)
T1 sequence: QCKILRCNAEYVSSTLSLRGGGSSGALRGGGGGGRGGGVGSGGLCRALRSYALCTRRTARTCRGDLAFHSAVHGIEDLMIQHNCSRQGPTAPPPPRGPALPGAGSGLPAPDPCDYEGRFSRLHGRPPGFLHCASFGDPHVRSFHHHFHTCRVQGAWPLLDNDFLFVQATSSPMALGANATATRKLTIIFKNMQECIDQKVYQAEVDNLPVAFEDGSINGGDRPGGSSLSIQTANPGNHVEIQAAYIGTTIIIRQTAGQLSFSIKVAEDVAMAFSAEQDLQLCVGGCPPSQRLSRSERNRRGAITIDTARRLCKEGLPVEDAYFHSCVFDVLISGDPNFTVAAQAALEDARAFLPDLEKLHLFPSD

T2: membrane-bound human RGMa (human, UniProt Q96B86 169-424)
T2 sequence (looked up): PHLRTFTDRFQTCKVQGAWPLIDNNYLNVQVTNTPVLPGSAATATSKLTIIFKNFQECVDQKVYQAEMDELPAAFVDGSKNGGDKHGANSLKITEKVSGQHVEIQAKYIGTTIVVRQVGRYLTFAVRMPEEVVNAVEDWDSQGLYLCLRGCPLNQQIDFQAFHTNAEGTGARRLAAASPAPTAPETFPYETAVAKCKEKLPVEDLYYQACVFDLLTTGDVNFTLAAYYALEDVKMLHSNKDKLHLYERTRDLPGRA


Tests used:
Assay in all cases: cell-based or functional assay
[1] = molecular target: T1, membrane-bound human RGMc
[2] = molecular target: T1, membrane-bound human RGMc; remark: listed apart in the source
[3] = molecular target: T2, membrane-bound human RGMa

Binder	Potency on membrane hRGMc (RGMc/BMP reporter assay) IC50 [1] [nM]	IC50 (nM), BMP reporter assay for RGMc [2] [nM]	Potency on membrane hRGMa (RGMa/BMP reporter assay) IC50 [3] [nM]
hHA-008 (antibody, human IgG1, kappa, L234A L235A) heavy: not shown light: DVVLTQSPLSLPVTLGQPASISCRSSQSLEESDGYTFLHWFQQRPGQSPRLLIYEVSTRFSGVPDRFSGSGSGTDFTLKISRVEAEDVGVYYCFQATHDPLTFGQGTKLEIKRTVAAPSVFIFPPSDEQLKSGTASVVCLLNNFYPREAKVQWKVDNALQSGNSQESVTEQDSKDSTYSLSSTLTLSKADYEKHKVYACEVTHQGLSSPVTKSFNRGEC	0.37	0.377	–
hHA-004 (antibody, human IgG1, kappa, L234A L235A, V domains shown) VH: EVQLVESGGGLVQPGGSLRLSCAASGFTFSNYGMNWIRQAPGKGLEWIGMIYYDSSEKHYADSVKGRFTISRDNSKNTLYLQMNSLRAEDTAVYYCAKGTTPDYWGQGTMVTVSS VL: DVVLTQSPLSLPVTLGQPASISCRSSQSLESSDGDTFLEWFQQRPGQSPRLLIYDVSTRFSGVPDRFSGSGSGTDFTLKISRVEAEDVGVYYCFQVTHDPVTFGQGTKLEIKR	0.31	0.312	2
hHA-009 (antibody, human IgG1, kappa, L234A L235A, V domains shown) VH: EVQLVESGGGLVQPGGSLRLSCAASGFTFSNYGMNWVRQAPGKGLEWIGMIYYDSSEKHYADSVKGRFTISRDNSKNTLYLQMNSLRAEDTAVYYCAKGTTPDYWGQGTMVTVSS VL: DVVLTQSPLSLPVTLGQPASISCRSSQSLADSDGDTFLHWFQQRPGQSPRLLIYAVSHRFSGVPDRFSGSGSGTDFTLKISRVEAEDVGVYYCFQATHDPVTFGQGTKLEIKR	1.36	1.36	–
hHA-011 (antibody, human IgG1, kappa, L234A L235A, V domains shown) VH: EVQLVESGGGLVQPGGSLRLSCAASGFTFSNYGMNWVRQAPGKGLEWIGMIYYDSSEKHYADSVKGRFTISRDNSKNTLYLQMNSLRAEDTAVYYCAKGSTPDYWGQGTMVTVSS VL: DVVLTQSPLSLPVTLGQPASISCRSSQSLEDSDGGTFLEWFQQRPGQSPRLLIYDVSSRFSGVPDRFSGSGSGTDFTLKISRVEAEDVGVYYCFQATHDPLSFGQGTKLEIKR	0.52	0.0554	1.7
